Source: paper PMC12099056, “Targeting the Exonic Circular OGT RNA/O-GlcNAc Transferase/Forkhead Box C1 Axis Inhibits Asparagine- and Alanine-Mediated Ferroptosis Repression in Neuroblastoma Progression” (Research, 2025)
One block for each binder: values may come before it.

Experiments:
[1] = Western blot of FOXC1 level; settings: glycan lost; control: mock, sh-Scb or untreated
[2] = molecular target: T1, recombinant GST-tagged OGT (wild-type) (human, UniProt O15294 1-1046); experiment: co-IP; recombinant GST-tagged OGT and MBP-tagged FOXC1 proteins (wild-type or truncations), co-IP and Western blot; settings: both partners purified
T1 construct: O-GlcNAc transferase (OGT), human cDNA (printed as 3,131 bp) from Genechem; wild-type construct as against truncations
T1 sequence (looked up): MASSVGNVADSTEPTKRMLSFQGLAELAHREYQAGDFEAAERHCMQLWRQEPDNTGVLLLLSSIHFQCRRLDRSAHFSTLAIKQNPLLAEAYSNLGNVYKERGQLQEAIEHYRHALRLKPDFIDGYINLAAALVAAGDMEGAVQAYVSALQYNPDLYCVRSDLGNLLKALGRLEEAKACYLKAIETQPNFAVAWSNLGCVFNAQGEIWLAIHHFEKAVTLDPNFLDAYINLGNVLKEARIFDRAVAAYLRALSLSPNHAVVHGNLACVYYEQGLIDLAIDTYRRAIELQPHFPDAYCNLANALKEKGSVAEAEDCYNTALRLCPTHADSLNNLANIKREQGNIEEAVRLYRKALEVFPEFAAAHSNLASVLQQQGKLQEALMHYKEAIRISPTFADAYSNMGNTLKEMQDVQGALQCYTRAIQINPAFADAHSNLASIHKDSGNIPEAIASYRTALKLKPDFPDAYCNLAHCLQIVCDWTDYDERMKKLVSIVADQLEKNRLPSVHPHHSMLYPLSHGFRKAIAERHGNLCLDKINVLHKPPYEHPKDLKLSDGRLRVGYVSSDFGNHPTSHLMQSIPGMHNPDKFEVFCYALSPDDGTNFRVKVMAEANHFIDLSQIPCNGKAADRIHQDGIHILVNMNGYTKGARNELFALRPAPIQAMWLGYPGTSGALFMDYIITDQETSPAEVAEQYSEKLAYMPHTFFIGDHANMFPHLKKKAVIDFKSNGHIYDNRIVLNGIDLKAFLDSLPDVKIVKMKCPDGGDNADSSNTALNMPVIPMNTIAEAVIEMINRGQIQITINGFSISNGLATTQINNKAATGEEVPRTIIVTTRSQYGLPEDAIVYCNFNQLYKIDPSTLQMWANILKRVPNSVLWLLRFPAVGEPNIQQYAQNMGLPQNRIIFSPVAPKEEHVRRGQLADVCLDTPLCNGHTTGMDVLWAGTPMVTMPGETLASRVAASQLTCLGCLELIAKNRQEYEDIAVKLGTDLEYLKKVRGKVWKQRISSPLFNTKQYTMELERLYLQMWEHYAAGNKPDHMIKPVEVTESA

[3] = dual-luciferase FOXC1 reporter, SH-SY5Y; settings: glycan lost; control: wild-type Flag-FOXC1
[4] = CHX chase Western blot (protein stability), SH-SY5Y; settings: glycan lost; control: sh-Scb
[5] = CHX chase Western blot (protein stability); settings: glycan lost; control: untreated

B1: forkhead box C1 (FOXC1): sh-OGT (protein)
parent chain: MQARYSVSSPNSLGVVPYLGGEQSYYRAAAAAAGGGYTAMPAPMSVYSHPAHAEQYPGGMARAYGPYTPQPQPKDMVKPPYSYIALITMAIQNAPDKKITLNGIYQFIMDRFPFYRDNKQGWQNSIRHNLSLNECFVKVPRDDKKPGKGSYWTLDPDSYNMFENGSFLRRRRRFKKKDAVKDKEEKDRLHLKEPPPPGRQPPPAPPEQADGNAPGPQPPPVRIQDIKTENGTCPSPPQPLSPAAALGSGSAAAVPKIESPDSSSSSLSSGSSPPGSLPSARPLSLDGADSAPPPPAPSAPPPHHSQGFSVDNIMTSLRGSPQSAAAELSSGLLASAAASSRAGIAPPLALGAYSPGQSSLYSSPCSQTSSAGSSGGGGGGAGAAGGAGGAGTYHCNLQAMSLYAAGERGGHLQGAPGGAGGSAVDDPLPDYSLPPVTSSSSSSLSHGGGGGGGGGGQEAGHHPAAHQGRLTSWYLNQAGGDLGHLASAAAAAAAAGYPGQQQNFHSVREMFESQRIGLNNSPVNGNSSCQMAFPSSQSLYRTSGAFVYDCSKF
expression_or_secretion [1]: decreases

binding result [2]: binds
B2: recombinant MBP-tagged FOXC1 (wild-type) (natural protein, human, UniProt Q12948 1-553, looked up)
chain: B1 parent chain
notes: forkhead box C1 (FOXC1), human cDNA (1,662 bp) from Genechem; wild-type construct as against truncations; the printed AD1 domain is residues 1 to 68; a cDNA of 1,662 bp fits 553 codons and a stop codon

B3: forkhead box C1 (FOXC1): S8A (protein)
parent chain: B1 parent chain
other: transcriptional activity [3]: decreases

B4: forkhead box C1 (FOXC1): sh-OGT #1 (protein)
parent chain: B1 parent chain
degradation_or_half_life [4]: decreases

B5: forkhead box C1 (FOXC1): OSMI-1 (protein)
parent chain: B1 parent chain
degradation_or_half_life [5]: decreases
expression_or_secretion [1]: decreases
